According to patent US20250154198A1, “PEPTIDE INHIBITORS OF INTERLEUKIN-23 RECEPTOR” (Zealand Pharma A/S, priority 2021, published 2025):
*1 amine or outer side, *2 acyl side, *3 side chain or, on linkers, in order; H or OH if unused. Bridges are numbered along the chain shown (N, C = ends). [ ]: non-standard residue; d: D form. 1,3‑dibromopropan‑2‑one = linker (CAS 816-39-7) joining two Cys as 1,3-dithio-propan-2-one bridge -SCH2C(=O)CH2S-; Trp(1-Me) = Cn1cc(C[C@H](N)C(=O)O)c2ccccc21; 2Nal = N[C@@H](Cc1ccc2ccccc2c1)C(=O)O; AEF = NCCOc1ccc(C[C@H](N)C(=O)O)cc1; αMeL = CC(C)C[C@](C)(N)C(=O)O; CH2COCH2 = O=C(C[*:1])C[*:2]

Legend:
[1] = target: T1, Nluc-IL23R fusion protein (human, UniProt Q5VWK5 22-629); assay: BRET displacement of TAMRA-labelled peptide, Nluc-IL23R membranes
T1 construct: range 22-629; Stably expressed in HEK293 cells; also called hIL-23R; human IL-23R fused to a Nanoluc luciferase enzyme; not shown: Nanoluc luciferase (Promega N1371 plasmid) at the N-terminus
T1 sequence (looked up): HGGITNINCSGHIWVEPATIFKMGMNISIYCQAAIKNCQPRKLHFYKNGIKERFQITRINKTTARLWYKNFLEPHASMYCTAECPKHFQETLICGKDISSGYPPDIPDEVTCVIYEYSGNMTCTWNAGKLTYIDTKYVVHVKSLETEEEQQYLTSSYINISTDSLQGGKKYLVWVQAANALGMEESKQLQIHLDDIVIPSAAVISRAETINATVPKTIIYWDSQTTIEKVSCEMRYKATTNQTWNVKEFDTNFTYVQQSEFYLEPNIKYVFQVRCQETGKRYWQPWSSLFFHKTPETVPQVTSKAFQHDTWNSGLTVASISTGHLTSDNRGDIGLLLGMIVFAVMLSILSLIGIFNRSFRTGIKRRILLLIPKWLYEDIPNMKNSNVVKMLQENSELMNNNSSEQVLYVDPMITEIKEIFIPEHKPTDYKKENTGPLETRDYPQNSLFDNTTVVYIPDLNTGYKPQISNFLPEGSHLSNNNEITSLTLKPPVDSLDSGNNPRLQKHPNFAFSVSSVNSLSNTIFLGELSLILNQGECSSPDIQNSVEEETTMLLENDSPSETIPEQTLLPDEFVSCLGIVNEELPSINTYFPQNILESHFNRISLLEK

[2] = target: T2, human IL-23R endogenously expressed on DB cells (CRL-2289) (human, UniProt Q5VWK5 24-629); assay: cell-based or functional assay
T2 sequence (looked up): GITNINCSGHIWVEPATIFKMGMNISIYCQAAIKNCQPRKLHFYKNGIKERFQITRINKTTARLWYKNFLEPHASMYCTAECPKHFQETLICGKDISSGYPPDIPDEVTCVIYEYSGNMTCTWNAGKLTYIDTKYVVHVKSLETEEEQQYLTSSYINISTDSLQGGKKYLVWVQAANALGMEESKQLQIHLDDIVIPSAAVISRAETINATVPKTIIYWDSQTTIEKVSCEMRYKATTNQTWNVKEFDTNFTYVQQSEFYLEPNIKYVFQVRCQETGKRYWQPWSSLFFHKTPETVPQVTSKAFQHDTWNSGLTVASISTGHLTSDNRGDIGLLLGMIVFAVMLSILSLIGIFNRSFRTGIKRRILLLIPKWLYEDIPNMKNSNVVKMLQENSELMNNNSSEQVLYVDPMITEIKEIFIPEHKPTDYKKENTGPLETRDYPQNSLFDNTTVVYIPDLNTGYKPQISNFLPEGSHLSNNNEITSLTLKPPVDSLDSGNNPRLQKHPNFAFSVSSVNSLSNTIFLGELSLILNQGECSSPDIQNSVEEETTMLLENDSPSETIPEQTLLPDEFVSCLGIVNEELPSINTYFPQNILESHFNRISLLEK

B1: Compound 12 (peptide)
peptide: Ac-ESCWQCWWLK-NH2
modifications: lactam 1-10; linker 3-6 via 1,3‑dibromopropan‑2‑one
[1]
  Ki: 373 nM
[2]
  IC50 (pSTAT3): > 1 µM

B2: Compound 57 (peptide)
peptide: Ac-DETCWQCW[2Nal][αMeL]KR-NH2
modifications: lactam 2-11; linker 4-7 via CH2COCH2
SMILES: CC(=O)N[C@@H](CC(=O)O)C(=O)N[C@H]1CCC(=O)NCCCC[C@@H](C(=O)N[C@@H](CCCNC(=N)N)C(N)=O)NC(=O)[C@](C)(CC(C)C)NC(=O)[C@H](Cc2ccc3ccccc3c2)NC(=O)[C@H](Cc2c[nH]c3ccccc23)NC(=O)[C@@H]2CSCC(=O)CSC[C@H](NC(=O)[C@H]([C@@H](C)O)NC1=O)C(=O)N[C@@H](Cc1c[nH]c3ccccc13)C(=O)N[C@@H](CCC(N)=O)C(=O)N2
[1]
  Ki: 68 nM
[2]
  IC50 (pSTAT3): 167 nM

B3: Compound 30 (peptide)
peptide: KSCWQCHXLER
HELM: PEPTIDE1{[ac].K.S.C.W.Q.C.H.[O=C([C@H](Cc1ccc2ccccc2c1)N[*:1])[*:2]].L.E.R.[am]}|CHEM1{[O=C(C[*:1])C[*:2]]}$PEPTIDE1,PEPTIDE1,2:R3-11:R3|PEPTIDE1,CHEM1,4:R3-1:R1|PEPTIDE1,CHEM1,7:R3-1:R2$$$V2.0
SMILES: CC(=O)N[C@H]1CCCCNC(=O)CC[C@@H](C(=O)N[C@@H](CCCNC(=N)N)C(N)=O)NC(=O)[C@H](CC(C)C)NC(=O)[C@H](Cc2ccc3ccccc3c2)NC(=O)[C@H](Cc2c[nH]cn2)NC(=O)[C@@H]2CSCC(=O)CSC[C@H](NC(=O)[C@H](CO)NC1=O)C(=O)N[C@@H](Cc1c[nH]c3ccccc13)C(=O)N[C@@H](CCC(N)=O)C(=O)N2
[1]
  Ki: 5.53 nM
[2]
  IC50 (pSTAT3): 68.6 nM

B4: Compound 1 (peptide)
peptide: DCSCWQCWWXCR
modifications: H-DC(1a)SC(2a)WQC(2a)WW[2-Me-Leu]C(1a)R-[NH2]; (1a)=[2,11] and (2a)=[4,7] 1,3-dithio-propan-2-one bridges
[1]
  Ki: 79.8 nM
[2]
  IC50 (pSTAT3): 783 nM

B5: Compound 25 (peptide)
peptide: Ac-KSC[2Nal]QCW[2Nal]LER-NH2
modifications: lactam 1-10; linker 3-6 via CH2COCH2
SMILES: CC(=O)N[C@H]1CCCCNC(=O)CC[C@@H](C(=O)N[C@@H](CCCNC(=N)N)C(N)=O)NC(=O)[C@H](CC(C)C)NC(=O)[C@H](Cc2ccc3ccccc3c2)NC(=O)[C@H](Cc2c[nH]c3ccccc23)NC(=O)[C@@H]2CSCC(=O)CSC[C@H](NC(=O)[C@H](CO)NC1=O)C(=O)N[C@@H](Cc1ccc3ccccc3c1)C(=O)N[C@@H](CCC(N)=O)C(=O)N2
[1]
  Ki: 185 nM
[2]
  IC50 (pSTAT3): > 1 µM

B6: Compound 27 (peptide)
peptide: Ac-KSC[Trp(1-Me)]QCW[2Nal]LER-NH2
modifications: lactam 1-10; linker 3-6 via CH2COCH2
SMILES: CC(=O)N[C@H]1CCCCNC(=O)CC[C@@H](C(=O)N[C@@H](CCCNC(=N)N)C(N)=O)NC(=O)[C@H](CC(C)C)NC(=O)[C@H](Cc2ccc3ccccc3c2)NC(=O)[C@H](Cc2c[nH]c3ccccc23)NC(=O)[C@@H]2CSCC(=O)CSC[C@H](NC(=O)[C@H](CO)NC1=O)C(=O)N[C@@H](Cc1cn(C)c3ccccc13)C(=O)N[C@@H](CCC(N)=O)C(=O)N2
[1]
  Ki: 1.77 nM
[2]
  IC50 (pSTAT3): 15.5 nM

B7: Compound 28 (peptide)
peptide: Ac-DKSCWQC[2Nal][2Nal]LER-NH2
modifications: lactam 2-11; linker 4-7 via CH2COCH2
SMILES: CC(=O)N[C@@H](CC(=O)O)C(=O)N[C@H]1CCCCNC(=O)CC[C@@H](C(=O)N[C@@H](CCCNC(=N)N)C(N)=O)NC(=O)[C@H](CC(C)C)NC(=O)[C@H](Cc2ccc3ccccc3c2)NC(=O)[C@H](Cc2ccc3ccccc3c2)NC(=O)[C@@H]2CSCC(=O)CSC[C@H](NC(=O)[C@H](CO)NC1=O)C(=O)N[C@@H](Cc1c[nH]c3ccccc13)C(=O)N[C@@H](CCC(N)=O)C(=O)N2
[1]
  Ki: 4.52 nM
[2]
  IC50 (pSTAT3): 27.4 nM

B8: Compound 31 (peptide)
peptide: KSCWQCWXLER
HELM: PEPTIDE1{[ac].K.S.C.W.Q.C.W.[O=C([C@H](Cc1ccc(F)cc1)N[*:1])[*:2]].L.E.R.[am]}|CHEM1{[O=C(C[*:1])C[*:2]]}$PEPTIDE1,PEPTIDE1,2:R3-11:R3|PEPTIDE1,CHEM1,4:R3-1:R1|PEPTIDE1,CHEM1,7:R3-1:R2$$$V2.0
SMILES: CC(=O)N[C@H]1CCCCNC(=O)CC[C@@H](C(=O)N[C@@H](CCCNC(=N)N)C(N)=O)NC(=O)[C@H](CC(C)C)NC(=O)[C@H](Cc2ccc(F)cc2)NC(=O)[C@H](Cc2c[nH]c3ccccc23)NC(=O)[C@@H]2CSCC(=O)CSC[C@H](NC(=O)[C@H](CO)NC1=O)C(=O)N[C@@H](Cc1c[nH]c3ccccc13)C(=O)N[C@@H](CCC(N)=O)C(=O)N2
[1]
  Ki: 76.3 nM
[2]
  IC50 (pSTAT3): 968 nM

B9: Compound 32 (peptide)
peptide: KSCWQCWXLER
HELM: PEPTIDE1{[ac].K.S.C.W.Q.C.W.[Cn1cc(C[C@H](N[*:1])C(=O)[*:2])c2ccccc21].L.E.R.[am]}|CHEM1{[O=C(C[*:1])C[*:2]]}$PEPTIDE1,PEPTIDE1,2:R3-11:R3|PEPTIDE1,CHEM1,4:R3-1:R1|PEPTIDE1,CHEM1,7:R3-1:R2$$$V2.0
SMILES: CC(=O)N[C@H]1CCCCNC(=O)CC[C@@H](C(=O)N[C@@H](CCCNC(=N)N)C(N)=O)NC(=O)[C@H](CC(C)C)NC(=O)[C@H](Cc2cn(C)c3ccccc23)NC(=O)[C@H](Cc2c[nH]c3ccccc23)NC(=O)[C@@H]2CSCC(=O)CSC[C@H](NC(=O)[C@H](CO)NC1=O)C(=O)N[C@@H](Cc1c[nH]c3ccccc13)C(=O)N[C@@H](CCC(N)=O)C(=O)N2
[1]
  Ki: 14.2 nM
[2]
  IC50 (pSTAT3): 118 nM

B10: Compound 47 (peptide)
peptide: Ac-KSCWQC[AEF][2Nal][αMeL]ER-NH2
modifications: lactam 1-10; linker 3-6 via CH2COCH2
SMILES: CC(=O)N[C@H]1CCCCNC(=O)CC[C@@H](C(=O)N[C@@H](CCCNC(=N)N)C(N)=O)NC(=O)[C@](C)(CC(C)C)NC(=O)[C@H](Cc2ccc3ccccc3c2)NC(=O)[C@H](Cc2ccc(OCCN)cc2)NC(=O)[C@@H]2CSCC(=O)CSC[C@H](NC(=O)[C@H](CO)NC1=O)C(=O)N[C@@H](Cc1c[nH]c3ccccc13)C(=O)N[C@@H](CCC(N)=O)C(=O)N2
[1]
  Ki: 0.624 nM
[2]
  IC50 (pSTAT3): 17.2 nM

B11: Compound 55 (peptide)
peptide: DEQCWQCYWXKR
HELM: PEPTIDE1{[ac].D.E.Q.C.W.Q.C.Y.W.[CC(C)C[C@](C)(N[*:1])C(=O)[*:2]].K.R.[am]}|CHEM1{[O=C(C[*:1])C[*:2]]}$PEPTIDE1,PEPTIDE1,3:R3-12:R3|PEPTIDE1,CHEM1,5:R3-1:R1|PEPTIDE1,CHEM1,8:R3-1:R2$$$V2.0
SMILES: CC(=O)N[C@@H](CC(=O)O)C(=O)N[C@H]1CCC(=O)NCCCC[C@@H](C(=O)N[C@@H](CCCNC(=N)N)C(N)=O)NC(=O)[C@](C)(CC(C)C)NC(=O)[C@H](Cc2c[nH]c3ccccc23)NC(=O)[C@H](Cc2ccc(O)cc2)NC(=O)[C@@H]2CSCC(=O)CSC[C@H](NC(=O)[C@H](CCC(N)=O)NC1=O)C(=O)N[C@@H](Cc1c[nH]c3ccccc13)C(=O)N[C@@H](CCC(N)=O)C(=O)N2
[1]
  Ki: 272 nM
[2]
  IC50 (pSTAT3): > 1 µM
